Results taken from the nanobody polyreactivity screen of Harvey et al. (2022).

Assay: yeast display, Sf9 membrane polyspecificity reagent, FACS + sequencing; frameworks hold sequencing errors
How it was run: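 Sorting gates, low and high (top ~1%), were placed on anti-HA fluorescence to track expression and on streptavidin fluorescence to track reagent binding. A clone's polyreactivity label is taken from the gate it came out of. The reagent was 10% biotinylated, detergent-solubilized Sf9 membrane, applied for 1 hour at 4 °C to galactose-induced yeast display cells.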

Sequence | polyreactivity (PSR sort gate)
QVQLVESGGGLVQAGGSLRLSCAASGSTLDVYDMGWYRQAPGKEREFVATISFSVGSTDYADSVKGRFTISRDNAKNTVYLQMNSLKPEDTAVYYCAADVSEWSNQYFDSYLRMDYWGQGTQVTVSS | low polyreactivity
QVQLVESGGGLVQAGGSLRLSCAASGSTFGWYAMGWYRQAPGKETELDAAISWSGGSTYYADSVKGRFTISRDNAKNTVYLQMNSLKPEDTAVYYCARDTQYPYYFLMDYWGQGTQVTVSS | low polyreactivity
QVQLVESGGGLVQAGGSLRLSCAASGLTFDLYNMGVYRKAPGKERELVAAISLSGGSTYYADSVKGRFTISRDNAKNTVYLQMNILKPDYTAVYYCAAAHSSSVIVEYDYWGQGTQVTVSS | low polyreactivity
QVQLVESGGGLVQAGGSLRLSCAASGFIFYRNTMGWYRQAPGKEREFVAAIRWRGGSTYYADSVKGRFTISRDNAKNTVYLQMNSLKPEDTAVYYCNALGKPTWYATTYDYWGQGTQVTVSS | high polyreactivity
QVQLVESVGGLVQAGGSLRLSCAASGSILRRYAMGWYRRAPWKERELVAAIDGGGGTTYYADSVKGRFTISRDYAKKTVYLQMNSLKPEDNAVYYCAADASWELIAWAHYDYWGQGTQVSVSS | low polyreactivity
QVQLLESGGGLVQAGGSLRLSCAASGSIFDPYAMGWYRQAPGKERELVAVINDGGRTTYADSVKGRFTISRDNAKNTVYLQMNRLKPEDTAVYYCAATSYFSRWDLYGYWGQGTQVTVSS | low polyreactivity
QVQLVESGGGLVQAGGSLRLSCAASGFIFQYNAMGWYRQAPGKERELVAAITSRGGSTYYADSVKGRFTISRDNAKNTVFLQMNSLKPEDTAVYYCATRRSYLADYWGQGTQVTVSS | high polyreactivity
QVQLVESGGGLVPARGSLRLSSAASGIIFSRYAMGWYRQAPGKERELVAAITRSGGDTYYADSVKGRFTISRDNAKTTFYLQMKSLTPEDSADYYCAAERTWYPWVATGYYWGQGTQVTVSS | low polyreactivity
QVQLVESGGGLVQAGGSLLLSCAASGSIFYRYAMGWDRQAPGKERELVAAISWNGGTTYYADSVKGRFTISRDNAKNTVYLQMNSLKPEDTAVYYCAADRPTSVYLFDYWGQGTLVTVSS | high polyreactivity
QVQLVESGGGLVQAGGSLRLSCAASGRIFNYYAMGWYRQAPGKERELVAAINSGGSTYADSVKGRFTISRDNAKNTVYLQMNSLKPEDTAVYYSAKDGQLQSGRERPSGYDHWGQGTQVTVSS | low polyreactivity
QVQLVESGGGLVKAGGSLRLSCAASGFTFTIYAMGWYRQAPGKERELVAAITNSGDTNYADSVKGRFTISRDNAKNTVYLQMNSLKPEDTAVYYCAKAYYIGYFFNFGSWGQGTQVTVSS | low polyreactivity
QVQLVESGGGLVQAGGSLRLSCAASGYIFYAYAMAWYRHAPGKESELVAAITDNGVSTFYADSVKGRFTISRDNAKNTVYLHMNSLIPEDTAVYYCATSSTHSRGDEYWGQGTQVAVSS | low polyreactivity
QVQLVESGGGLVQAGGSLRLSCAASGRIIRINAMGSYRPAPGKERELVAAITRGGTTYADSVKGRFTISRDNAKNTVYLQMTSLIPEDTSVYNCNARTGRSPSGFRYWGQGTQVTVSS | high polyreactivity
QVQLVESGGGLVQAGGSLRLSCAASGRIFYRYAMGWYRQAPGKERELVASITGRGGRTYYADSVKGRFTISRDNAKNSVYLHMNSLKPEDTEVYYCAADWGVHRPPYDSWGQGTQVTVSS | high polyreactivity
QVQLVESVGGLVQAGGSLRLICAASGSIFSRYAMGWYRQAPGKEREFVARITQRGGSTYYADSVKGRFTISRDNAKNTVYLQRQSLKPEDTAVYYCNADHYRRLLAEDYWGQGTQVTVSS | low polyreactivity
QVQLVESGGGLVQAGGSLRLSCAASGSIFQYNDMGWYRQQPGKEREFVADISSSGGSTYYADSVKGRFTISRDTAKNTVYLQMNSLKPEDTEVYYCNADPGYDFYRDEYWGQGTQVTVSS | low polyreactivity
QVQLVESGGGLVQAGGTLRLSCAASGFTFGFYAMGWYRQAPGKERELVAAITWSGGSTYYADSVKGRFTISRDNAKNTVYLQMNSLKPEDTAVYYCNAYTYGSEFDYWGQGTQVTVSS | high polyreactivity
QVQLVESGGGLVQAGGSLRLSCAASGITFTTYAMGWYRQAPGKERELVATINRGSRTNYADSVKGRFTISRDNAKNTVYLQMNSLKAEDTAVYYCAAHYTTFIPSPDGDYLGQGTQVTVSS | low polyreactivity
QVQLVESGGGLVQAGGSLRLSCAASGSTLYPYAMGWYRQAPGKEWELVAVITLRGGSTYYADSVKGRFTISRDNAKNSVSVQMKSLKPEDTAVYYCAADPRKVHSDDYDYWGQGTQVNVSS | high polyreactivity
QVQLVESGRGLVQAGGSLRLSCPASGRTFSTNAMGWYRQAPGKEREFVAVISSSSGSTYYADSVKGRFTISRDNAKNTVYLQMNSLKPEDTAVYYCAAGYRYRVSYSVYEFYYWGQGTQVTVSS | high polyreactivity
QVQLVESGGGLVQAGGSLRLSCAASGSIVPTYAMGWYRQAPGKERELVAAIRSGSNTYYADSVKGRFTISRDNAKNTVYLQMNSLKPEDTAVYYCNVGPQRKYPGRRTVPFGYWGQGTQVTVSS | low polyreactivity
QVQLVESGGGLVQAGGSLRLSCAASGNIFAVYAMGWYRQAPGKERELVAAISYSSTRTYYADSVKGRFRISRDNAKNTVYLQMNSLKPEDTAVYYCAVETWWDYDYWGQGTQVTVSS | high polyreactivity

Sequence | polyreactivity (PSR sort gate)
QVQLVESGGGLVQAGGSLRLSCADSGSIFYRYAMGWYRQAPGKERELGAAISQSGGSTYYADSVKGRFTISRDNAKNTVYLQMNSLKPEDTAVYYCQLIRRGHDYWGQGTQVTVSS | high polyreactivity
QVQLVESGGGLLQAGGSLRLSCAASGRIIGWYAMGWYRPAPGKERELVAAISRGGTRTNYADSVKGRFTISRDNAKNTVYLQMNSLKPEDTAVYSCAAGGSWCQNGYWGQGTQVTVSS | high polyreactivity
QVQLVESGGGLVQAGGSLRLSCAASGSIFDGYAMRWYRQAPGKERELVAAIRWGDGITYYADSVKGRFTISRDIAKNTVYLLMNSLKPVDTAVYYCAAVQHGHEPRVQDSYDYWGQGTQVTVSS | low polyreactivity
QVQLVESGGGLVQAGGRLRLSCAASGYIFPKNAMGWYRQAPGKERELVAAITGSGGSTYYADSVKGRFTISRDNAKNTVYLQMNSLKPEDTAVYYCAKRSWIEYDYWGQGTQVTVSS | low polyreactivity
QVQLVESGGGLVQAGGSLRLSCAATGSIFARYAMGWYRQAPGKERELVAAIDQSAGSTYYADSVKGRFTISRDNAKNTVYLQMNSLKPEDTAVYYCNADFWYWWVNTYVGPGLGYWGQGTQVTVSS | high polyreactivity
QDQLVESGGGLVQAGGSHRLSCAASGRTFYLYAMGWYRHAPGKERELVAGISYRGSRTYYADSVKVRFTISRDYEKNTVYLQMNSLKPEDTAVYYCATPAGQAAYDYWGQGTQVTVSS | high polyreactivity
QVQLVESGGGLVQAGGSLRLSCAASGSIIYYAMGWYRQAPGKEREFVAAITKSGGSTYYADSVKGRFTFSRDNAKNTVYLQMNSLKPEDTAVYYCAARGTWAGFYYWGQGTQVTLSS | high polyreactivity
QVQLVESGGGLVQAGGSLRLSCAASGSIFSFYSMGWYRQAPGKERELVSGITWSGGSTYYADSVKGRFTISRDNAKNTVYLQMNSLKPEDTAVYYCAKTKWYYWYTSFPSVQSYDYWGQGTHVTVSS | high polyreactivity
QVQLVESGGGLVQAGGILRISCAASGRTFIMNAMGWYRQAPGKERELVAAINWSGGTSTYYADSVKGRFTISRDNAKNTVYFQMNSLKPEDTAVYYCAADYYSYVYYDYWGQGTLVTVSS | low polyreactivity
QVQLVESGGGLVQAGGSLRLSCAATGGIFDYYAMGWYRQAPGKERALVAAIRGGGSTNYADSVKGRFTISRDNAKNTVYLQMNSLKPEDTAVYYCAKDSPFTSVTVLAPIIYDSWGQGTQVTVSS | low polyreactivity
QGQLVESGGGLVQAGGSLRLSCAASGIIFEYYDMGWYRQAPGKERELVAAIDSGGSTYYADSVKGRFTISRDNAKNTVYLQMNSLKPEDTAVYYCAASRPPNTSNTGYGSWGQGTQVTVSS | low polyreactivity
QVQLVESGGGLVQAGGSLRLSCAASGRIIYGNAMGWYRQAPGKERELVAAITSGGSTNYADSVKGRFTISRDNAKNTVYLQMNSLKPEDTAVYYCNAVVYSPYRYEYWGQGTQVTVSS | low polyreactivity
QVQLVESGGGLVQAGGRLRLSCAASGSILGEYAMGLNRQANGKERELVAAISVGGCSTYYADSVKGRFTISRDNAKNTVYLQMNSLKPVDTAVYYCSAYDYQSEMYYWGQGTQVTVSS | high polyreactivity
QVQLEESGGGLVQAGGSLRLSCAASGITFRQYAMGWYRQAPGKERELVATISSGDDTYYADSVKGRFTISRDNAKNTVYLQMNSLKPEDTAVYYCAARYWTSIVRYRGDYWGQGTQVTVSS | high polyreactivity
QDQLVESGGRLVQAGGSLRLSCAASGITFSRYAMGWYRQAPGKEWELVAAISCSGARTYYADSVKGRFTISRDNAKNTVYLQMNSLKPEDTAVYYCDRFLRNFKTYDYWGQGTQLTVSS | high polyreactivity
QVQLVESGGGLVQAGGSLRISCAASGFTFEDNTMGWYRQAPGKERELVAAITWGGVSTYYADSVKGRFTISRDNAKNTVYLQMNSLKPEDTAVYYCARDYDVYTVFLMDYWGQGTQVNVSS | low polyreactivity
QVQLVESGGGLVQAGGSLRLSCAASGNIFGRYAMGWYRQAPGKERELVAAISSGDITYYADSVKGRFTISRDNAKNTVYLQMNSLKPEDTAVYYCAADSYWSVVYIKYDYWGQGTQVTVSS | low polyreactivity
QVQLQESGGGLVQAGGSLRLRCAASRNISGSSDLGWYHQAPGKEREFVASMTSGGTTYYADSVKGRFTISRDNAKISEYLQMNSLKPEDTAVYYCAVGDPADAEFGYWGQGTQVTVRS | low polyreactivity
QVQLVESGGGLVQAGGSLRLSCAASGRTFHWYTMGWYRLAPGKERELVAAISWSGTTTYYADSVKGRFTISRDNAKNTVYVQMNSLKPEDTAVYYCAFPTYNHNPVSAMTYYYWGQGTQVTVSS | low polyreactivity
QVQLVESGGGLVQAGGSLRLSCAASGRTFVHNDMGWYRQAPGKERQLVAAINVSDGSTYYADSVKGRFTISRDNAKNTVYFQMNSLKPEDTAVYYCAKASYIIFRFEYRSGYDYWGQGTQVTVSS | low polyreactivity
QVQIVESGGGLVQAGGSLSLTCAASGSIITSNDMGWYRQAPGKERELVAAISKSGGRTYYAYSVKGRFTISRENEKNTDYLQMNCLKQEYTAVYYCHAGIYGYGYNPSYDYWGQGTQVTLSS | high polyreactivity
